From patent US20210277090A1 come the findings set out here.

The target in the test is trypsin. Description: cell-based or functional assay.

In turn, “recombinant ulinastatin polypeptide (T17); mature human ulinastatin with S10A mutation, N-linked glycan at N45 and O-linked glycan at T17 (from UniProt P02760 206-352)” gave a specific activity of the sample (units of trypsin inhibition) of 5000 U/mg.
